Experimental data as given in patent US20250270328A1 (BRIGHAM AND WOMEN S HOSPITAL, published 2025).
Substitutions are numbered along the chain they refer to.

B1: 10A3D6hum2.2-afuc (afucosylated 10A3D6hum2.2) (antibody, human IgG1, kappa, V domains shown)
VH: QVQLVQSGAEVKKPGASVKVSCKASGYSFTGYTMNWVRQAPGQNLEWIGLINPNTGGTYYNQKFKDRVTLTVDTSISTAYMELSRLRSDDTAVYYCARLGDNYRGYFDSWGQGTTVTVSS
VL: DIQLTQSPSFLSASVGDRVTITCKASQDVGTAVVWYQQKPGKAPKLLIDWASIRHTGVPSRFSGSGSGTEFTLTISSLQPEDFADYFCQQYSTYLYTFGGGTKLEIKR
modifications: Fc N-glycan afucosylated (produced in FUT8 knockout cells). The amino-acid letters are unchanged from 10A3D6hum2.2.
B2: 10A3D6-hIgG1k (mouse/human chimeric antibody with 10A3D6 variable regions and human IgG1-kappa constant regions) (antibody)
heavy: not shown
light: DIVMTQSHKFMSTSVGDRVNITCKASQDVGTAVVWYQQTPGQSPKVLIDWASIRHTGVPDRFTGSGSGTDFTLTISSVQSEDLADYFCQQYSTYLYTFGGGTKLEIKRTVAAPSVFIFPPSDEQLKSGTASVVCLLNNFYPREAKVQWKVDNALQSGNSQESVTEQDSKDSTYSLSSTLTLSKADYEKHKVYACEVTHQGLSSPVTKSFNRGEC
notes: also called 10A3D6-chimeric; 10A3D6-hIgGlk; copies: 2 + 2
B3: 10A3D6hum1.2 (antibody, V domains shown)
VH: B1 VH with N44G, I48M, L70M, V72R
VL: B1 VL
modifications: Fluorescently labelled in the competition assay; dye and attachment site not stated.
notes: Humanized antibody; also called 103AD6hum1.2; copies: 2 + 2
B4: 10A3D6C109Chum2.5 (antibody, V domains shown)
VH: B1 VH with S109C
VL: EIVMTQSPATLSVSPGERATLSCKASQDVGTAVVWYQQKPGQAPRLLIDWASIRHTGIPARFSGSGSGTEFTLTISSLQSEDFAVYYCQQYSTYLYTFGGGTKVEIK
notes: Humanized variant of 10A3D6 made by CDR grafting
B5: 10A3D6C109Chum3.5 (antibody, V domains shown)
VH: B1 VH with P41H, S109C
VL: B4 VL
notes: as for B4
B6: 10A3D6hum2.2 (antibody, human IgG1, kappa, V domains shown)
VH: B1 VH
VL: B1 VL
notes: copies: 2 + 2
B7: 10A3D6C109Chum4.5 (antibody, V domains shown)
VH: B1 VH with P41H, V68A, S109C
VL: B4 VL
notes: as for B4
B8: 10A3D6C109Chum5.4 (antibody, V domains shown)
VH: B1 VH with I48M, A92V, S109C, T115L
VL: DIQLTQSPSFLSASVGDRVTITCKASQDVGTAVVWYQQTPGKAPKLLIDWASIRHTGVPDRFSGSGSGTEFTLTISSLQPEDFADYFCQQYSTYLYTFGGGTKLEIK
notes: as for B4
B9: 10A3D6C109Chum5.5 (antibody, V domains shown)
VH: B1 VH with I48M, A92V, S109C, T115L
VL: B4 VL
notes: as for B4
B10: 10A3D6C109Chum5.1 (antibody, V domains shown)
VH: B1 VH with I48M, A92V, S109C, T115L
VL: B8 VL with T39K, D49Y, D60S, D85T, F87Y
notes: as for B4
B11: 10A3D6C109Chum5.3 (antibody, V domains shown)
VH: B1 VH with I48M, A92V, S109C, T115L
VL: B8 VL with D60S
notes: as for B4
B12: 10A3D6hum1.5 (antibody, V domains shown)
VH: B1 VH with N44G, I48M, L70M, V72R
VL: B4 VL
notes: Humanized antibody
B13: 10A3D6C109Chum1.5 (antibody, V domains shown)
VH: B1 VH with N44G, I48M, L70M, V72R, S109C
VL: B4 VL
notes: as for B4
B14: 10A3D6C109Chum5.2 (antibody, V domains shown)
VH: B1 VH with I48M, A92V, S109C, T115L
VL: B8 VL with T39K, D60S
notes: as for B4

target: T1, human KLRB1 expressed on CHO-K1 cells (CHO-hum-KLRB1) (human, UniProt Q12918 1-225); experiment: cell-based or functional assay
T1 sequence: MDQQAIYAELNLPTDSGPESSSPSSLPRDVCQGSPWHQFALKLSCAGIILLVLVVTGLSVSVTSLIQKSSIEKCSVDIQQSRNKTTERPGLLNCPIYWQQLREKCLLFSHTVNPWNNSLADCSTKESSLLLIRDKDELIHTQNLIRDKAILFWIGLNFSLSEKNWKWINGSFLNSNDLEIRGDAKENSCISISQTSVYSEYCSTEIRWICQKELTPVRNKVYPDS

With B1 the “ADCC target cell killing EC50 (flow cytometry, human NK cells)” value was 0.01 nM.

target: T2, human KLRB1 protein extracellular domain (ECD) (human, UniProt Q12918 67-225); experiment: SPR, human KLRB1 ECD; format not stated
T2 construct: range 67-225; The ELISA and SPR text says only 'human KLRB1 ECD'; also called human KLRB1 ECD; CD161
T2 sequence (looked up): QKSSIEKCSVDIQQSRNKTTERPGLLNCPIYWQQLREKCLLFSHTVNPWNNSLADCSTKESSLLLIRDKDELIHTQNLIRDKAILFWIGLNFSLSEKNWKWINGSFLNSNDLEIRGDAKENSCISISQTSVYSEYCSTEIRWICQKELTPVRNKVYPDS
Method: The chimeric antibody 10A3D6-hIgGlk (a mouse/human chimeric antibody with 10A3D6 variable regions and human IgG1-kappa constant regions), chimeric mutated variants (10A3D6C109S, 10A3D6C109F, and 10A3D6C109V), and humanized variants of 10A3D6 created by CDR grafting (Almagro et al. 2008) were assayed for binding against human KLRB1 extracellular domain (ECD) via surface plasma resonance (SPR).

B2 and B3 are within 1.5-fold of each other in Kd: 0.172 nM for the first, 0.147 nM for the second.

B4 and B5 are within 1.5-fold of each other in Kd: 0.11 nM for the first, 0.144 nM for the second.

B6 and B7 are within 1.5-fold of each other in Kd: 0.131 nM for the first, 0.127 nM for the second.

B8 and B9 are within 1.5-fold of each other in Kd: 0.143 nM for the first, 0.17 nM for the second.

Going from B10 to B11, the Kd falls from 10.2 nM to 0.155 nM (66-fold). The second binds more tightly here.

B12 and B13 are within 1.5-fold of each other in Kd: 0.111 nM for the first, 0.0881 nM for the second.

For B14, the Kd was 0.173 nM.

B2 and B3 are within 1.5-fold of each other in koff: 0.000191 s⁻¹ for the first, 0.000183 s⁻¹ for the second.

B4 and B5 are within 1.5-fold of each other in koff: 9.49e-05 s⁻¹ for the first, 0.000114 s⁻¹ for the second.

B6 and B7 are within 1.5-fold of each other in koff: 0.000139 s⁻¹ for the first, 0.000107 s⁻¹ for the second.

B8 and B9 are within 1.5-fold of each other in koff: 0.000133 s⁻¹ for the first, 0.000139 s⁻¹ for the second.

Compared with B10, B11 is 150-fold lower in koff: 0.0196 s⁻¹ for the first, 0.000134 s⁻¹ for the second.

Compared with B12, B13 is 2-fold lower in koff: 0.000178 s⁻¹ for the first, 9e-05 s⁻¹ for the second.

For B14, the koff was 0.000138 s⁻¹.

B2 and B3 are within 1.5-fold of each other in kon: 1.11e+06 M⁻¹ s⁻¹ for the first, 1.24e+06 M⁻¹ s⁻¹ for the second.

B4 and B5 are within 1.5-fold of each other in kon: 861000 M⁻¹ s⁻¹ for the first, 792000 M⁻¹ s⁻¹ for the second.

B6 and B7 are within 1.5-fold of each other in kon: 1.07e+06 M⁻¹ s⁻¹ for the first, 843000 M⁻¹ s⁻¹ for the second.

B8 and B9 are within 1.5-fold of each other in kon: 930000 M⁻¹ s⁻¹ for the first, 816000 M⁻¹ s⁻¹ for the second.

Compared with B10, B11 is 2.2-fold lower in kon: 1.92e+06 M⁻¹ s⁻¹ for the first, 868000 M⁻¹ s⁻¹ for the second.

First: B12
Second: B13
The kon of the first is 1.6-fold higher: 1.6e+06 M⁻¹ s⁻¹ for the first, 1.02e+06 M⁻¹ s⁻¹ for the second.

B14 showed a kon of 800000 M⁻¹ s⁻¹.
